{"source": "the nanobody polyreactivity screen of Harvey et al. (2022)", "data": [{"test": "yeast display, Sf9 membrane polyspecificity reagent, FACS + sequencing; frameworks hold sequencing errors", "procedure,_shortened": "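Nanobodies came from a synthetic yeast display library in Saccharomyces cerevisiae BJ5465, induced with galactose for 36–48 hours and stained for 1 hour at 4 °C with 10% biotinylated, detergent-solubilized Sf9 membrane reagent. Cells were enriched on streptavidin microbeads and then FACS-sorted, with low and high (top ~1%) gates set on anti-HA fluorescence for expression and streptavidin fluorescence for reagent binding. Each polyreactivity label reflects the gate a clone came from. Genes were amplified by colony PCR, sequenced by MiSeq 2 × 250 and filtered by CDR length.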", "values": [{"sequence": "QVQLVESGGGLVQAGGSLRLICAASGITFFRNAMGWYRQAPGKERELVATITKSGGSTYYADSVKGRFTISRDNAKNTVYLQMNSLKPDDTSVYYCSAVRRYPVKYVAYDYWGQGTQVTVSS", "polyreactivity (PSR sort gate)": "low polyreactivity"}, {"sequence": "QVQLVESGGGLVQAGGSLRLSCAASGSIFPPYVMGWYRQAPGKERELVASITTSGGSTYYADSVKGRFTISRDNAKNTVYLQMNSLKPEDTAVYYCAARWYYGGKSAGPGGGYWGQGTQVTVSS", "polyreactivity (PSR sort gate)": "low polyreactivity"}, {"sequence": "QVQLVETGGGLVQAGGSLRLSCAASGSTFFINAMGWYRQAPGKERELVAAITSTDSTTYADSVKGRFTISRDNAKNTVYLQMNSLKPEDTAVYYCAKESIGQDPVSGAWARHEYDYWGQGTQVTVSS", "polyreactivity (PSR sort gate)": "low polyreactivity"}, {"sequence": "QVQLVESGGGLVQAGGSLRLSCAASGSTFHGYALGWYRQAPGKERELVAAISWSGGRTYYADSVKGRFTISRDNAKNTVYLQMNSLKPEDTAVYYCNKDGYYRWQSTYLANRYDYWGQGTQVTVSS", "polyreactivity (PSR sort gate)": "high polyreactivity"}, {"sequence": "QGQLVESGGGLVQAGGSLRLSCAASGSIFPDYAMGWYRQAPGKERELVAAITWRDDSTYYADSVKGRFTISRDNAKNTVYLQMNSLKPEDTAVYYCIASALDPLYAKDDYWGQGTQVTVSS", "polyreactivity (PSR sort gate)": "low polyreactivity"}, {"sequence": "QVQLVESGGGLVQAGGSLRLSCAASGITFDYYTMGWYRQAPGKERELVAGITRGGRTYYADSVKGRFTISRDNAKNTVYLQMNSLKPEDTAVYYCNADPWWRFDYWGQGTQVTVSS", "polyreactivity (PSR sort gate)": "low polyreactivity"}, {"sequence": "QAELVESGGGLVQAGGSLRLSSAASGIIFDVYAMGWYRQAPGKERELVASIRWRGGSTYYADSVKGRFTISRDNAKNTVFLQMNSLKPEDTAVYYCAADLTRWYGRTYNYWGQGTQVTVSS", "polyreactivity (PSR sort gate)": "high polyreactivity"}, {"sequence": "QVQHVESGGGLVQAGGSLRLSCAASGRNFTYYAMGWYRQAPGKERELVAAISGGGITNYADSVKGRFTISRDNAKNTVYLQMNSLKPEDTAVYYCAADQRYRRAFRSRYGSWGQGTQVTVSS", "polyreactivity (PSR sort gate)": "low polyreactivity"}, {"sequence": "QVQLVESGGGLVQAGGSLRLSCAASGSTFVSYDMGWYRQAPGKERELVADISWSGVSTYADSVKGRFTISRDNAKNTVYLQMNSLKPEDTAVYYCATDDARRGYGYGYWGQGTQVTVSS", "polyreactivity (PSR sort gate)": "low polyreactivity"}, {"sequence": "QVQLVESGGGLVQAGGSLRLSCAASGSTFSIYAMGWYRQAPGKERELVAAITSDGSTYYADSVKGRFTISRDNAKNTVYLQMNSLKPEDTAVYYCAADWWYGWVSYEYWGQGTQVTVSS", "polyreactivity (PSR sort gate)": "high polyreactivity"}, {"sequence": "QVQLVESGGGLVQAGGTLRLSCSATGYIFWSYAMGGYRQAPGKERELVAGITASGGSTYYADSVKGRFTISRDNAKNTVYLQMNSLKPEDTAVSYCAVALRSTPRTREVRPSPRVYYWGQGTQVTVSS", "polyreactivity (PSR sort gate)": "high polyreactivity"}, {"sequence": "QVQLVESGGGLVQAGGRLRLSCAASGFIFSYYTMGCYRQAPGKERELVAAIRSSGGSTYADSVKGRFTISRDNAKNTVYLQMNSLNPEDTAVYYGAGGYYWNEPLYWYGDFDYWGQGTQVTVSS", "polyreactivity (PSR sort gate)": "high polyreactivity"}, {"sequence": "QVQLVESGGGLVQAGGSLRLSCAASGSIFTYYTMGWYRQAPGKERELVAAIRWSAGRTYYADSVKGRFTISRDNAKNTVYLQMNSLKPEDTAVYYCAAAERLRHGLKFDYWGQGTQVTVSS", "polyreactivity (PSR sort gate)": "high polyreactivity"}, {"sequence": "QVQLVESGGGLVQAGGSLRLSCAASGFTFYSYAMGWYRQAPGKERELVAAISRSGGSTRYADSVKGRFTISRENAKNTVYLQMNSLKPEDTAVYYCNAGKDRAYDYWGQGTQVTVSS", "polyreactivity (PSR sort gate)": "high polyreactivity"}, {"sequence": "QVQLVESGGGLVQAGGSLRLICAASGFTFSYYAMVWYRQAPGKERELVAVISDRGGITYYADSVKGRFTISRDNAKNTVYLQMNSLKPEDTAVYYCAAQNPRYNYRYYYWGQGTQVTVSS", "polyreactivity (PSR sort gate)": "low polyreactivity"}, {"sequence": "QVQLVESGGGLVQAGGSLRLSCAASGFIFRRYAMGWYRQPPGKERELVAAISGSGGRTYYADSVKGRFTISRDNAKNTVYLQMNSLKPEDTAVYYCAADHGSLLYDYWGQGTQVTVSS", "polyreactivity (PSR sort gate)": "high polyreactivity"}, {"sequence": "QVQLVESGGWLVQAGGSLRLSCAASGFIFYRYAMGWYRPAPGKERELDAAISGSGGRTYYADSVKGRFTISRDNAKNTVYLQMNSLKPEDTAVYYCAADKQAYVTDDYWGQGTQVTVSS", "polyreactivity (PSR sort gate)": "high polyreactivity"}, {"sequence": "QDQLVEAGGGLVQAGGSLRLSCAASGRIFYPDAMVWYRQAPGKERELVAAIRRSGVDTYYADSVKVRFTISRDNAKNTVSLQRNSLKPEDTAVYYCAADPYWFFPHYDSWGQGTQVTVSS", "polyreactivity (PSR sort gate)": "low polyreactivity"}, {"sequence": "QVQLVESGGGLVQAGGSLRLSCAASGGTIGRYTMGWYRQAPGKERELVAAITGRGGSTYYADSVKGRFTISRDNAKNTVYLQMNSLKPEDTAVYYCAAVSNVARMYYWGQGTQVTVSS", "polyreactivity (PSR sort gate)": "high polyreactivity"}, {"sequence": "QVQLVESGGGLVQAGGSLRLSCPASGIIFKGYAMGWYRQAPGKERELVAAISQSGGSTYYADSVKGRFTISRDNAKNTVYLQMNSLKPEDTAVYYCNARYSRVVPRYYYWGQGTQVTVSS", "polyreactivity (PSR sort gate)": "high polyreactivity"}, {"sequence": "QVQLVESGGGLVQAGGSLRLSCAASGSIFYYYAMGWYRQAPGKVRELVASISSGGRTYYADSVKGRFTISRDNAENTLYLQLNSLKPEDSAVYYCAVEVWWWEGDYDYWGLGTQVTVSS", "polyreactivity (PSR sort gate)": "high polyreactivity"}, {"sequence": "QVQLQESGGGLVQAGGSLRLSCAASGTIFTARFMGWYRQAPGKERELVATITDGGNTNHADSVKGRFTISRDNAKNTVYLHMNSLKPEDAAVYYCAAGEVDNDTLLYWGQGSQVTVSS", "polyreactivity (PSR sort gate)": "low polyreactivity"}, {"sequence": "QVQLVESGGGLVQVGGSLRLSCAASGRTFWWYAMGWYRQAPGKERELVAAITRSGGSTYYADSVKGRFTISRDNAKYTVYLQMNSLKQEDTAVYYCAASHYGLLEYWGQGTQVTVSS", "polyreactivity (PSR sort gate)": "low polyreactivity"}, {"sequence": "QVQLVESGGGLVQAGGSLRLSCAASGGILNRYAMGWYRQAPGKERELVAAIRWSGGSTYYADSVKGRFTISRDNAKNTVYLQMNSLKPEDTAVYYCAADVYYYHVLDFDYWGQGTLVTVSS", "polyreactivity (PSR sort gate)": "low polyreactivity"}, {"sequence": "QVQLVESGGGLVQAGGSLRLSCAASGFTFSRNTMGWYRQAPGKARELVARISASGGSTYYADSVKGRFTISRDNAKNTVYLQMNSLKPEDTAVYYCAAVYRRYGGSRYDYWGQGTQVTVSS", "polyreactivity (PSR sort gate)": "high polyreactivity"}, {"sequence": "QVQLVESGGGLVQAGGSLRLSCAASGRIFQYYTMGWYRQAPGKERELVAAITWSSSRTYYADSVKGRVTISRDNAKNTVYLQMNSLKPEDTAVNYCAAEAQAAWNDYTYWGQGTQVTVSS", "polyreactivity (PSR sort gate)": "high polyreactivity"}, {"sequence": "QVQLVESGGALVQAGGSLRLSCAASGSTFRYYAMGWYRQAPGKERELVAAIRWSGDSTYYADSVKGRFTISRDNAKNTVYLQMNSLKPEDTAVYYCAADRQRSHRVGTKGHRVGYWGQGTQVSVSS", "polyreactivity (PSR sort gate)": "high polyreactivity"}, {"sequence": "QVHLVESGGGLVQAGGSLRLSCAASGRTFVINAMGWYRQAPGKERELVAAITWGGGSTYYADSVKGRFTISRDNAKNTVYLQMNSLKPEDTAVYYCATSYSVQYGGSGYYWGQGTQVTVSS", "polyreactivity (PSR sort gate)": "low polyreactivity"}, {"sequence": "QVQLVESGGGLVQAGGSLRLSCAASGSTFYTNVMGWYRQAPGKDRELVAAISYNSGSTSYADSVKGRFTISRDNAKNTVYLQMNSLKPEDTAVYYCAVRIRLRRARLSYDYWGQGTQVTVSS", "polyreactivity (PSR sort gate)": "high polyreactivity"}, {"sequence": "QVQLVESGGGLVQAGGSLRLSCAASGLTFSDNAMGWYRQAPGKEREFVAAITRNGGSTRYADSVKGRFTISRDNAKNTVYLQMNSLKPEDTAVYYCAAVPVGYDSDWGYYYWGQGTQVTVSS", "polyreactivity (PSR sort gate)": "low polyreactivity"}, {"sequence": "QVQLVESGGGLVQAGGSLRLSCAASGSTFGVNAMGWYRQAPGTERELVADISVRTDSTYYADSVKGRVTISRDNAKNTVYLQMNSLKAEDTAVYYCNAGLGIEYDYWGQGTQVSVSS", "polyreactivity (PSR sort gate)": "low polyreactivity"}, {"sequence": "QVQLVESGGGLVQAGGSLRLSCAASGRIFAYNTMGWYRQAPGKERELVAVITSGGSTNYADSVKGRFTISRDNAKNTVYLQMNSLKPEDTAVYYCNADPRLRQTRDYWGQGTQVTVSS", "polyreactivity (PSR sort gate)": "high polyreactivity"}]}]}
